T1: human PACAP38 (human, not fully specified; C-terminal lysine is amidated; N-terminal or C-terminal biotin in the HTRF and PC-12 cell binding assays)
T1 construct: synthetic peptide, bought; also called huPACAP (1-38)
T1 peptide: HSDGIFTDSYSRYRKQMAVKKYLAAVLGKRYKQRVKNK

T2: human PACAP27 (human, C-terminal leucine is amidated; 125I-labelled in Example 10)
T2 peptide: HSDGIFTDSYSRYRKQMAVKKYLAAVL

T3: human VIP (human)
T3 construct: also called Vasoactive Intestinal Peptide
T3 peptide: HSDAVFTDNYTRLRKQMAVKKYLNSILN


How the values were obtained:
[1] = biological target: T1, human PACAP38; test: SPR, Ab immobilised
Description: (§1) Binding affinities of monoclonal antibodies for human PACAP were estimated using SPR on the PROTEON™ XPR36 (Bio-Rad, Hercules, Calif.). Antibody was immobilized to the surface of general amine coupling (“GLC” or “GLM”) Chips (Bio-Rad, Hercules, Calif.). A dilution series of human PACAP38 (SEQ ID NO: 1241) prepared in 1×PBST Buffer (4.3 mM Na Phosphate, 1.4 mM K Phosphate, 135 mM NaCl, 2.7 mM KCl 0.05% Polysorbate-20) purchased from Teknova (Cat# P1192, Teknova, Hollister, Calif.) and supplemented with 0.25 M arginine (from J.T. BAKER®), 0.2 mg/ml BSA (Jackson Immuno Research Labs, West Grove, Pa.), and 0.005% sodium azide (VWR International, Radnor, Pa.) with the pH adjusted to 7 was used to query the antibodies. Antigen (ranging from 1.23 nM to 100 nM) was typically run sequentially with association times of 2-4 minutes and dissociation times of 3-120 minutes grouped with the PROTEON™ Manager Software (v3.1.0.6 (Bio-Rad, Hercules, Calif.)) and fitted using a 1:1 Langmuir binding model. Surfaces were regenerated between analyte queries using 0.85% Phosphoric Acid.

[2] = biological target: T2, human PACAP27; test: SPR, Ab immobilised
Description: [The procedure below names another target; the source says it served here with some conditions changed.] as §1

[3] = biological target: T3, human VIP; test: SPR, Ab immobilised
Description: [The procedure below names another target; the source says it served here with some conditions changed.] as §1

[4] = biological target: T1, human PACAP38; test: cell-based or functional assay
[5] = biological target: T2, human PACAP27; test: cell-based or functional assay
[6] = biological target: T1, human PACAP38; test: cell-based or functional assay
[7] = biological target: T1, human PACAP38; test: cell-based or functional assay
[8] = biological target: T1, human PACAP38; test: HTRF binding, biotin-PACAP38
Description: In parallel, 10 μl of an antibody dilution series (highest final concentration of 100 nM) were incubated with 10 μl of N-terminal or C-terminal biotinylated PACAP38 (35 nM final) alone, or in combination with either PACAP27 (350 nM final) or VIP (350 nM final), i.e., 10× PACAP27 or 10×VIP, respectively, in a HTRF plate. 20 μl of Eu³⁺ cryptate labeled anti-hu Fc donor and 20 μl of d2-labeled streptavidin acceptor were added to each well and incubated for 1 hour at room temperature. Fluorescence was measured at 620 and 665 nm with a delay of 300 μsec.
EC₅₀ values, i.e. the concentration of an antibody that yields a response halfway between the baseline and the maximum value within a specified time period, were computed for each antibody based upon their binding curves and are shown in Table 1 below. […] A humanized form of antibody Ab1 was produced and is identified by an appended “.H”, i.e., Ab1.H, and it also bound PACAP38 with high affinity.

[9] = biological target: T1, human PACAP38; test: inhibition of 100 nM biotin-PACAP38 binding to PC-12 cells, TRF
Description: To identify antibodies that block PACAP38 binding to PAC1-R-expressing cells, adherent PC-12 cells (ATCC, Manassas, Va.) expressing PAC1-R were used in a Europium-based PAC1-R expressing cells binding assay.
Antibody solutions were incubated with N-terminal biotinylated PACAP38 at 10× the final concentration (100 nM or 30 nM) for 1 hr, then added to PC-12 cells that were plated 24 hrs. prior in black clear bottom 96 well plates (COSTAR™, Corning Incorporated, Corning, N.Y.) and further incubated for 1 hr at room temperature. After three washes, the cells were incubated with 20 μl Europium-labeled streptavidin (PerkinElmer, Waltham, Mass.) for 1 hr at room temperature. Cells were washed three times, then 20 μl DELFIA® Enhancement solution (PerkinElmer, Waltham, Mass.) was added to each well and incubated for 15 minutes with gentle shaking. Plates were read (Time Resolved Fluorescence (“TRF”)) on SPECTRAMAX® (Molecular Devices, Sunnyvale, Calif.) plate reader.
FIGS. 14A-14BB are representative of the inhibition curves obtained by this method (results are shown for Ab1, Ab2, Ab3, Ab4, Ab5, Ab6, Ab7, Ab8, Ab9, Ab10, Ab11, Ab12, Ab13, Ab14, Ab15, Ab16, Ab17, Ab18, Ab19, Ab1.H, Ab10.H, Ab22, Ab23, Ab3.H, Ab4.H, Ab5.H, Ab9.H, and Ab12.H, respectively) wherein the PAC1-R expressing cells were PC-12 cells.

Row | Binder | Kd [1] [nM] | koff [1] [s⁻¹] | kon [1] [M⁻¹ s⁻¹] | Kd [2] [µM] | koff [2] [s⁻¹] | kon [2] [M⁻¹ s⁻¹] | Kd [3] [µM] | koff [3] [s⁻¹] | IC50, 0.1 nM PACAP38-induced PAC1-R mediated cAMP increase [4] [nM] | IC50, 0.1 nM PACAP27-induced PAC1-R mediated cAMP increase [5] [nM] | IC50, 5 nM PACAP38-induced human VPAC1-R mediated cAMP increase [6] [µM] | IC50, 1 nM PACAP38-induced human VPAC2-R mediated cAMP increase [7] [µM] | EC50 [8] [µM] | IC50 [9] [µM] | kon [3] [M⁻¹ s⁻¹]
1 | anti-PACAP antibody Ab9 (antibody, human IgG1, kappa, N297A, V domains shown, full-length rabbit/human chimeric antibody) VH: EQSGGGAEGGLVKPGGSLKLSCKASGFTISRDYWICWVRQAPGKGLEWIGCISAGGGSTDYANWVNGRFTLSRDIDQSTGCLQLNSLTDADTAMYYCAGNLEIWGQGTLVTVSS VL: AQVLTQTPSSVSAAVGGTVTINCQSSPSIYSGAFLSWFQQKPGQPPKFLIYEASKLASGVPSRFSGSGSGTQFTLTISDVQCDDAATYYCLGFYDCSSVDCHAFGGGTEVVVKR | 0.14 | 0.00011 | 820000 | 0.00034 | 0.00032 | 960000 | 100000 | 0.1 | 0.987 | 2.84 | 0.00406 | 0.00696 | 0.00023 | 0.0333 | –
2 | anti-PACAP antibody Ab6 (antibody, human IgG1, kappa, N297A, V domains shown, full-length rabbit/human chimeric antibody) VH: LEQSGGGAEGGLVKPGGSLELCCKASGFSLSSTYWMCWVRQAPGKGLEWIGCIYTGSGSTDYASWVNGQFTLSRDIDQSTGCLQLNSLTVADTAMYYCTKNFDLWGPGTLVTVSS VL: AQVLTQTPSSVSAAVGGTVTINCQSSPSVYSNNYLSWFQQKPGQPPKGLIADASTLASGVPSRFKGSGSGTQFTLTISGVQCDDAAAYYCLGYYDCGSTDCHAFGGGTEVVVKR | 0.14 | 4.1e-05 | 300000 | 0.00021 | 8.2e-05 | 390000 | 0.044 | 0.00014 | 0.0512 | 0.38 | 0.000797 | 0.000217 | 0.0005 | 0.0078 | 3100
3 | anti-PACAP antibody Ab1 (antibody, human IgG1, kappa, N297A, V domains shown, full-length rabbit/human chimeric antibody) VH: QSVEESGGRLVTPGTPLTLTCTVSGFSLSSAVMNWVRQAPGKGLEWIGSIVASGTTYYASWANGRFTISKTSSTTMDLKMTSPTTEDTATYFCARGGGEFFIWGPGTLVTVSS VL: DPVMTQTPSSTSAAVGGTVTISCQSSESVYSNYLSWYQQKPGQPPNFLIYQASNLASGVPSRFKGSGSGTQFTLTITDLECDDAATYYCAGGYSENIVGFGGGTEVVVKR | ≤ 0.027 | ≤ 1e-05 | 370000 | ≤ 0.0001 | ≤ 1e-05 | 1e+06 | 0.099 | 0.025 | 0.293 | 0.0729 | 0.000665 | 0.000147 | 0.00043 | 0.0127 | 250000
4 | anti-PACAP antibody Ab8 (antibody, human IgG1, kappa, N297A, V domains shown, full-length rabbit/human chimeric antibody) VH: LEQSGGGAEGGLVKPGGSLELCCKASGFSLTTSHWMCWVRQAPGKGLNWIGCISAGSGDADYATWVDAQFTLSRDIDQNTGCLQLNSLTPADTAMYYCTINFELWGQGTLVTVSS VL: AQVLTQTPSSVSAAVGGTVTINCQSSPSVYSSYLSWFQQKPGQPPKFLIYEASKLASGVPSRFSGSGSGTQFTLTISGVQCSDAATYYCLGAYDCGRTDCHAFGGGTEVVVKR | ≤ 0.029 | ≤ 1e-05 | 350000 | 0.00014 | 6e-05 | 440000 | 0.21 | 0.1 | 0.0393 | 0.049 | 0.000481 | 0.000147 | 0.00048 | 0.0203 | 480000

Reference: patent US20190233498A1 (H LUNDBECK A S, published 2019)
